Results taken from patent US20170073395A1 (Pfizer, published 2017).

Tests used:
[1] = molecular target: T1, RAGE (cognate target of the anti-RAGE antibodies; species not stated at the place) (Homo sapiens (Human), UniProt Q15109 23-342); test: HTRF epitope competition, IgG titrated; competitor parental IgG (Par-RAGE)
T1 construct: not shown: Carrier or tag of the soluble construct

hTRKB = molecular target: T2, hTRKB (human, UniProt Q16620 32-430, limits assumed); test: Biacore specificity assay: IgG immobilised (about 300 RU), antigen injected at 500 nM
T2 construct: Non-target panel protein
T2 sequence (Q16620 32-430 limits assumed): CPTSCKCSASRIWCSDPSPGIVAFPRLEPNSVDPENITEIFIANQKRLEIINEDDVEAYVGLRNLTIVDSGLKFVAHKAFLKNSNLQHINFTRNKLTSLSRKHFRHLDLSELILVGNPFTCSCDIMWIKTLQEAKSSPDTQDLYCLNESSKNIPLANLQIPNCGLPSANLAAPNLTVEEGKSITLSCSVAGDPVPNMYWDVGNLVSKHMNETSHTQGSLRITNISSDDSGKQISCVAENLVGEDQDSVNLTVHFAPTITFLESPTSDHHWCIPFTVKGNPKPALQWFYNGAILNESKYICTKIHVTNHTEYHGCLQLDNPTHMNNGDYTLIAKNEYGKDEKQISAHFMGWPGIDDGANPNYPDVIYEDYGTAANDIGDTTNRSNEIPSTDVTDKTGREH
Experimental: (§1) Biacore specificity analyses were performed using the T-200 biosensor, series S CM5 chips, an amine-coupling kit, 10 mM sodium acetate immobilization buffer at pH 5.0, 10× HBS-P running buffer and NaOH for regeneration (GE Healthcare). A predefined ligand (IgG) immobilization program was set up to immobilize approximately 300 Response Units (RU) on the flow cell for each IgG to be tested. For Anti-RAGE and anti-A33, a panel of fully-purified recombinant target and non-target antigens were diluted in HBS-P running buffer to a final concentration of 500 nM. Four groups of antigens were examined, including: cell membrane proteins (mTRKB, hTRKB, mEGFR, hEGFR, hFceR1, hIL-21R, mICAM1, mICAM2, hICAM1, hCD33, hLAMP-1, hLOX-1, and), soluble signaling molecules (mTNFa, hVEGF, hCXCL13) and albumins (BSA, HSA and MSA). These proteins were injected at 50 μl/min for 3 min, followed by a 5 sec pulse of 20 mM NaOH for regeneration of the chip surface. For pTau, a series of pTau-derived phosphorylated and non-phosphorylated peptides were flowed, as in Shih et al.³. All sensorgrams were analyzed using the Biacore T-200 evaluation software.

mEGFR = molecular target: T3, mEGFR (mouse, UniProt Q01279 25-647, limits assumed); test: as above
T3 construct: Non-target panel protein
Experimental: as §1

hIL-21R = molecular target: T4, hIL-21R (human, UniProt Q9HBE5 20-232, limits assumed); test: as above
T4 construct: Non-target panel protein
T4 sequence (Q9HBE5 20-232 limits assumed): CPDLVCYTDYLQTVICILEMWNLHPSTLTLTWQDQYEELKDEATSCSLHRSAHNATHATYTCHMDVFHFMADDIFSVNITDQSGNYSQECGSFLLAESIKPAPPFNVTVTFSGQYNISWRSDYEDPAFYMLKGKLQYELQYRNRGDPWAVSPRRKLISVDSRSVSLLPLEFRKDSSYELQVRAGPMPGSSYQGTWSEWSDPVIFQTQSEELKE
Experimental: as §1

mICAM1 = molecular target: T5, mICAM1 (mouse, UniProt P13597 28-485, limits assumed); test: as above
T5 construct: Non-target panel protein
T5 sequence (P13597 28-485 limits assumed): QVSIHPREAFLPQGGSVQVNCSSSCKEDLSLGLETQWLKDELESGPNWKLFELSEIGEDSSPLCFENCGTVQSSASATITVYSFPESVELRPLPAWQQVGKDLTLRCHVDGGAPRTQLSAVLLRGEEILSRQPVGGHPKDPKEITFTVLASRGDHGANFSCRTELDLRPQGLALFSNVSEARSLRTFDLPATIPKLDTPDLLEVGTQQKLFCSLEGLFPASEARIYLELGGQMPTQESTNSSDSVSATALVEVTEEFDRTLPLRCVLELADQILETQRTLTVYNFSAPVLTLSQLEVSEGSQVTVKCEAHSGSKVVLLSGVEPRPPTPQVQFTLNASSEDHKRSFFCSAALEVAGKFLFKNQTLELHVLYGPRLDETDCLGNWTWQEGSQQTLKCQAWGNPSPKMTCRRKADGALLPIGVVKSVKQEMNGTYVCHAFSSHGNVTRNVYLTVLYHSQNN
Experimental: as §1

mTNFa = molecular target: T6, mTNFa (mouse, UniProt P06804 80-235); test: as above
T6 construct: Non-target panel protein
T6 sequence (looked up): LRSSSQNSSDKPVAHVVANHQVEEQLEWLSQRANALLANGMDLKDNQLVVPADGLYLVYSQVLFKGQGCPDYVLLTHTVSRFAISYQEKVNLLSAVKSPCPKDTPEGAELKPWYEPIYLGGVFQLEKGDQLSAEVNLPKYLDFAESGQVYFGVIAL
Experimental: as §1

hVEGF = molecular target: T7, hVEGF (human, UniProt P15692-4 27-191, limits assumed); test: as above
T7 construct: Non-target panel protein
T7 sequence (P15692 other isoform, or with tags, fused parts or gaps limits assumed): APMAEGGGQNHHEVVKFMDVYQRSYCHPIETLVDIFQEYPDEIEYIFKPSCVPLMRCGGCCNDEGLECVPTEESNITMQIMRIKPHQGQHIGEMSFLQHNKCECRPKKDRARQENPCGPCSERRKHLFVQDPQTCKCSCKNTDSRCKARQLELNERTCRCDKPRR
Experimental: as §1

hCXCL13 = molecular target: T8, hCXCL13 (human, UniProt O43927 23-109); test: as above
T8 construct: Non-target panel protein
T8 sequence (looked up): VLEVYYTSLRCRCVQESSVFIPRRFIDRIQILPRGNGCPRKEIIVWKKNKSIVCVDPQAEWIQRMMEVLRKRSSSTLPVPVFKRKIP
Experimental: as §1

MSA = molecular target: T9, MSA (UniProt P07724 25-608); test: as above
T9 construct: Non-target panel protein (albumins)
Experimental: as §1

T1 sequence (Q15109 23-342 limits assumed): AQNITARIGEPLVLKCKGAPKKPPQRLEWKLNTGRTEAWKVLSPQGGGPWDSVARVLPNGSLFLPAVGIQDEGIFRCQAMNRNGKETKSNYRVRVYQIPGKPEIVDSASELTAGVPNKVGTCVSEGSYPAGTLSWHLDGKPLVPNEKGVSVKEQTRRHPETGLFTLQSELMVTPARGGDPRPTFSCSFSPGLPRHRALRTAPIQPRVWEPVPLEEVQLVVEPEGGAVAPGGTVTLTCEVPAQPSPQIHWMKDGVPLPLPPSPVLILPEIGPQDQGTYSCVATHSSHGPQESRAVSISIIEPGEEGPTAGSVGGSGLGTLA

IC50 [1]: 5.8 nM
binding result (hTRKB): no binding (tested: 500 nM)
binding result (mEGFR): no binding (tested: 500 nM)
binding result (hIL-21R): no binding (tested: 500 nM)
binding result (mICAM1): no binding (tested: 500 nM)
binding result (mTNFa): no binding (tested: 500 nM)
binding result (hVEGF): no binding (tested: 500 nM)
binding result (hCXCL13): no binding (tested: 500 nM)
binding result (MSA): no binding (tested: 500 nM)
B1: C7-ABS-RAGE IgG (human IgG1) (antibody, V domains shown)
VH: EVQLVESGGGLVQPGGSLRLSCAASGFTFSSYWMSWVRQAPGKGLEWVASIDQDGSNKYYPDSVKGRFTISRDNAKNSLYLQMNSLRAEDTAVYYCARGGDITTGLDYWGQGTLVTVSS
VL: DIQMTQSPSSLSASVGDRVTITCRASQSIGSYLNWYQQKPGKAPKLLIYRASSLASGVPSRFSGSGSGTDFTLTISSLQPEDFATYYCLEFDEHPLTFGGGTKVEIK
notes: Human IgG1 format
